# Laboratory results reported in patent publication US20060058236A1, “Endogenously-formed conjugate of albumin” (priority 2004, published 2006).
# Assays:
# [1] = molecular target: human serum albumin (Homo sapiens, UniProt P02768); test: Incubation of Epo conjugates with human serum albumin, SDS-PAGE and anti-HSA immunoblot; format: in vitro ADME; settings: 0.05% HSA, 21 hours at 37° C., no small molecule thiols
# Procedure: mPEG-DTB-Epo (prepared as described above), mPEG-Epo, or Epo (0.2 mg/mL) was incubated with 0.05% human serum albumin (HSA) in 100 mM HEPES, 2 mM EDTA, pH 7.5 buffer for 21 hours at 37° C. […] The SDS-PAGE gel stained with SYPRO™ red protein stain is shown in FIG. 14A and an immunoblot probed with anti-HSA is shown in FIG. 14B.
# [2] = Pharmacokinetic profile in rats dosed intravenously with 125I-labeled lysozyme or its PEG conjugates; format: in vivo, rat; settings: intravenous
# Procedure: Lysozyme (66 mg in […] in 0.1 M sodium phosphate buffer pH 7.3) was mixed with 605 μCi of Na^125I (ICN Biomedicals, Irvine, Calif.), in Iodo-Gen® coated tube (Pierce Chemical Company, Rockford, Ill.), and allowed to react for 1 hour at room temperature with 20 min intervals mixing. The iodination reaction was stopped by removing the free ^125I on a Sephadex G-25F gel filtration column (17 mL), and collecting the ^125I-lysozyme, which was then reacted with either mPEG-DTB-NPC and mPEG-NPC, and purified by cation exchange chromatography as described above.
# Male Sprague-Dawley rats (250-330 g each, 3 animals per formulation per experiment) were dosed either by intravenous (via a lateral tail vein) or by subcutaneous (dorsally above the right rear leg) with ^125I labeled lysozyme or its PEG conjugates (0.35 mL, 0.4 mg protein/mL, 4.6×10^6 cpm/mL). Blood samples (0.4 mL) were collected via the retro-orbital sinus. All injections blood collections were performed while the animals were under inhaled anesthesia (isoflurane/O2). Samples were collected on heparin into polypropylene tubes and stored on ice for no longer than one hour before being pipetted in triplicate (0.100 mL) into fresh polypropylene tubes. Blood samples were collected at the following times after dosing (no single rat had blood collected at all of the following times): 30 sec, 15 min, 30 min and 1, 2, 3, 4, 6, 8, 24, 48, 72, 96, 120 and 168 hours post-dose. Note that the last 4 time points were added for the longer subcutaneous experiments. The samples were then counted for ^125I in a Packard™ 5000 gamma counter. The cpm counts were converted to concentration according to the specific activity of the samples.
# [3] = Decomposition of PEG-DTB-lysozyme conjugates in cysteine solution, HPLC; format: in vitro ADME; settings: 0.6 mM cysteine, room temperature, pH 7.4, HPLC
# Procedure: (§1) Conjugates of PEG-DTB-lysozyme were prepared as described in Example 1A. The conjugates (100 μg/mL=0.066 mM) were incubated in 0.6 mM cysteine or with 4% BSA at room temperature (22-24° C.), in 10 mM phosphate buffer pH 7.4 containing 2 mM EDTA. Aliquots were taken at various time points, reactions were stopped with 20 mM iodoacetamide, and stored at 2-8° C. until analysis.
# For the conjugates incubated with cysteine, analysis of the aliquots was as done follows. The samples were diluted 1/10 in 10 mM NaPO4 pH 7.4 and analyzed on a carboxymethyl (CM) cation exchanger column.
# (§2) HPLC was performed with the following conditions: Column: TOSOH TSK CM-5PW 10 micron (7.5 mm×7.5 cm); Mobile phase: (A) 10 mM NaPO4 pH 7.4 and (B) 500 mM NaCl in 10 mM NaPO4 pH 7.4; Gradient: 5 min 100% A, 20 min 0% B to 100% B; Flow rate: 1 mL/min; Fluorescence detector: λex 295 nm, λem 360 nm (slit 30 nm); and injection volume, 100 μL.
# [4] = molecular target: T1, bovine serum albumin (Bos taurus, UniProt P02769); test: Decomposition of PEG-DTB-lysozyme conjugates in 4% BSA solution, HPLC; format: in vitro ADME; settings: room temperature, pH 7.4, HPLC after Q spin column
# T1 construct: purchased Proliant (Ankeny, IA)
# T1 sequence (P02769 25-607): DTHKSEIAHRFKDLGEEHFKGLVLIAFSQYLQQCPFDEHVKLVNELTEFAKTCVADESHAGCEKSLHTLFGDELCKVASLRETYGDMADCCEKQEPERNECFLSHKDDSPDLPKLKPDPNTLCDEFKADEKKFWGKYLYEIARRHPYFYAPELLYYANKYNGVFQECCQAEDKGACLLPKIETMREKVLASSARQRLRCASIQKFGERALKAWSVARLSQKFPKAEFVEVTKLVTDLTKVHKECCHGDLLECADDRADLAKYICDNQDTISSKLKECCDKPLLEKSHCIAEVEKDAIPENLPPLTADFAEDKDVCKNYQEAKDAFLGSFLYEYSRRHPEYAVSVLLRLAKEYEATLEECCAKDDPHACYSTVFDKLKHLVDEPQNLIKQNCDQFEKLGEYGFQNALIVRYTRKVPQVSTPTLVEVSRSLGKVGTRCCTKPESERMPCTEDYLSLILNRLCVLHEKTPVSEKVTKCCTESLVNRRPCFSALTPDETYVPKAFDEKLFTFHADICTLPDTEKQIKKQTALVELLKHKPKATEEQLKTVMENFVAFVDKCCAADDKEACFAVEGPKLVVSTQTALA
# Procedure: as §1
# For the conjugates incubated with BSA, analysis of the samples was done by diluting the samples 1/10 in 10 mM PO4 pH 7.4, passing through Q spin columns (Vivascience) in order to trap the albumin and any of its related products, and then analyzing on the same CM column.
# as §2
# [5] = tested on: Micrococcus luteus; test: Micrococcus luteus turbidity assay of active lysozyme after cleavage of the conjugate; format: biochemical
# Procedure: A Micrococcus luteus turbidity assay was used to measure the amount of active lysozyme regenerated after cleavage of the conjugate.
# At various time points, aliquots from the incubation vials were added to iodoacetamide to a final concentration of 20 mM, in order to stop the cleavage reaction. Samples were stored at 2-8° C. prior to analysis.
# Micrococcus luteus stock solution was prepared at 0.3 mg/mL in 100 mM KPO4 pH 7. Lysozyme standards solutions were prepared at 1, 2, 4, 6, 8, and 10 μg/mL in PBS and a lysozyme standard curve was constructed (not shown). The samples from the cleavage reactions were diluted 1/10 in PBS. For the assay, 50 μL of standard, sample, or control were added per well to 96-well microtiter plates. To each well, 200 μL of Micrococcus luteus were added, and without delay, plates were read at 450 nm at 25° C. in a plate reader of a period of 10 min, in 30 second reading intervals.
# The slopes (ΔA/min) were calculated for the first 5 minutes of the reading, and the corresponding lysozyme concentrations were extrapolated from the lysozyme standard curve.
substance,measurement,setting,value
"Epo: Recombinant, human erythropoietin (EPO, EPREX)",formation of albumin-Epo conjugate,[1],Neither Epo alone nor the noncleavable mPEG-Epo formed the albumin-Epo conjugate
lysozyme: lysozyme as a model therapeutic agent,clearance from the blood stream / circulation lifetime,[2]; 24 hour period,cleared rapidly
mPEG5K-DTB-lysozyme: methoxypolyethylene glycol (5 kDa) joined to lysozyme through a methyl-dithiobenzyl urethane linkage,calculated half-life of remaining conjugate upon incubation in cysteine,[3],0.75 h
same,calculated half-life of remaining conjugate upon incubation in BSA,[4],5 h
same,active lysozyme regenerated from the cysteine cleavage,"[5]; 0.6 mM cysteine, 37° C.",74 µg/mL
same,active lysozyme concentration after cleavage with BSA,"[5]; 4% BSA, 37° C., after 24 hours",approximately 18 μg/mL
same,active lysozyme after BSA cleavage as percent of that from cysteine cleavage,[5]; 24 hours,24%
same,release of lysozyme from the PEG in saline,[5]; saline at 37° C. for up to 24 hours,did not induce release of the lysozyme
mPEG12K-DTB-lysozyme: methoxypolyethylene glycol (12 kDa) joined to lysozyme through a methyl-dithiobenzyl urethane linkage,calculated half-life of remaining conjugate upon incubation in cysteine,[3],1 h
same,calculated half-life of remaining conjugate upon incubation in BSA,[4],6 h
same,"AUC values, cleavable vs noncleavable conjugate",[2],similar
same,"half-lives, cleavable vs noncleavable conjugate",[2],similar
